The values below come from patent publication US20210388102A1.

Positions count from the first letter of the chain named.

This test has as its target His peptide-tagged soluble cynoADAM9 (cynoADAM9-His) (cynomolgus monkey). The test is described as follows: SPR (BIACORE), antibody captured, cynoADAM9-His in flow.

B1: hMAB-A (2.2) (antibody, human IgG1, kappa, V domains shown)
VH: EVQLVESGGGLVKPGGSLRLSCAASGFTFSSYWMHWVRQAPGKGLEWVGEIIPIFGHTNYNEKFKSRFTISLDNSKNTLYLQMGSLRAEDTAVYYCARGGYYYYGSRDYFDYWGQGTTVTVSS
VL: DIVMTQSPDSLAVSLGERATISCKASQSVDYSGDSYMNWYQQKPGQPPKLLIYAASDLESGIPARFSGSGSGTDFTLTISSLEPEDFATYYCQQSHEDPFTFGQGTKLEIKR
Molecule B1 showed a dissociation constant Kd of 110 nM, a koff of 0.022 s⁻¹ and an on-rate (kon) of 200000 M⁻¹ s⁻¹.

B2: hMAB-A (2D.2) (antibody, V domains shown)
VH: B1 VH with G105T, S106G, R107K, D108G, Y109V, F110L
VL: DIVMTQSPDSLAVSLGERATISCKASQSVDYSGDSYMNWYQQKPGQPPKLLIYAASDLESGIPARFSGSGSGTDFTLTISSLEPEDFATYYCQQSHEDPFTFGQGTKLEIK
Take B2: the dissociation constant Kd stood at 0.7 nM, the koff is 0.0003 s⁻¹ and the kon worked out at 420000 M⁻¹ s⁻¹.

B3: hMAB-A (2C.2) (antibody, human IgG1, kappa, V domains shown)
VH: B1 VH with G105P, S106R, R107F, D108G, Y109W, F110L
VL: B1 VL
Regarding B3, the Kd is less than 0.3 nM, the koff was less than 1e-05 s⁻¹ and the on-rate (kon) stood at 350000 M⁻¹ s⁻¹.

B4: hMAB-A (2B.2) (antibody, V domains shown)
VH: B1 VH with G105I, S106G, R107K, D108G, Y109V, F110L
VL: B2 VL
With B4, the dissociation constant (Kd) is 0.2 nM, the off-rate constant (koff) was 6.6e-05 s⁻¹ and the on-rate (kon) was found to be 340000 M⁻¹ s⁻¹.
